First the molecules themselves.
B1: LINE1-full (parent)
chain: UACGUAGGUGGUUUUCCCCUGAUAGUGCUAAGGGGGCCUGGAAGUUUGGACUGGGCAGAGCUCAACACAGCGUGGCAAAGUGGCUGUGGCUAGACUGCCUCUCUGGAUUCCUCGUCACUCAGCAGGGCAUCUCUGAGAGAAAUGCC

The data set covers variants of B1. Nature of the data set: self-cleavage, relative activity (ratio to wild type); higher = more cleavage; in vitro, sequencing; the parent is a self-cleaving ribozyme.
As for UACAUAGGUGGUUUUCCCCUGAUAGUGCUAAGGGGGCCUGGAAGUUUGGACUGGGCAGAGCUCAACACAGCGUGGCAAAGUGGCUGUGGCUAGACUGCCUCUCUGGAUUCCUCGUCACUCAGCAGGGCAACUCUGAGAGAAAUGCC, the self-cleavage came to 0.55.
With UACCUAGGUGGUUUUCCCCUGAUAGUGCUAAGGGGGCCUGGAAGUUUGGACUGGGCAGAGCUCAACACAGCGUGGCAAAGUGGCUGUGGCUAGACUGCCUCUCUGGAUUCCUCGUCACUCAGCAGGGCAUCUCUAAGAGAAAUGCC, the self-cleavage worked out at 0.56.
With UACAUAGGUGGUUUUCCCCUGAUAGUGCUAAGGGGGCCUGGAAGCUUGGACUGGGCAGAGCUCAACACAGCGUGGCAAAGUGGCUGUGGCUAGACUGCCUCUCUGGAUUCCUCGUCACUCAGCAGGGCAUCUCUGAGAGAAAUGCC, the self-cleavage came out at 0.57.
Then UACAUAGGUGGUUUUCCCCUGAUAGUGCUAAGGGGGCCUGGAAGUUUGGACUGGGCAGAGCUCAACACAGCGUGGCAAAGCGGCUGUGGCUAGACUGCCUCUCUGGAUUCCUCGUCACUCAGCAGGGCAUCUCUGAGAGAAAUGCC, with 1.44; and UACAUAGGUGGUUUUCCCCUGAUAGUGCUAAGGGGGCCUGGAAGUUUGGACUGGGCAGAGCUCAACACAGCGUGGCAAAGUGGCUGUGGCUAGACUGCCUCUCUGGAGUCCUCGUCACUCAGCAGGGCAUCUCUGAGAGAAAUGCC, with 0.96.
Take UACCUAGGUGGUUUUCCCCUGAUAGUGCUAAGGGGGCCUGGAAGUUUGGACUGGGCAGAGCUCAACACAGCGUGGCAAAGUGGCUGUGGCUAGACUGCCUCUCUGGAUUCCUCGUCACUCAGCAGGGCAUCUCUGAGAGAAAUGCC: the self-cleavage was 1.17.
As for UACCUAGGUGGUUUUCCCCUGAUAGUGCUAAGGGGGCCUGGAAGUUUGGACUGGGCAGAGCUCAACACAGCGUGGCAAAGUGGCUGUGGCUAGACUGCCUCUCUGGGUUCCUCGUCACUCAGCAGGGCAUCUCUGAGAGAAAUGCC, the self-cleavage stood at 0.29.
As for UACAUAGGUGGUUUUCCCCUGAUAGUGCUAAGGGGGCCUGGAAGUUUGGACUGGGCAGAGCCCAACACAGCGUGGCAAAGUGGCUGUGGCUAGACUGCCUCUCUGGAUUCCUCGUCACUCAGCAGGGCAUCUCUGAGAGAAAUGCC, the figure is 0; as for UACAUAGGUGGUUUUCCCCUGAUAGUGCUAAGGGGGCCUGGAAGUUUGGACUGGGCAGAGCUCAACACAGCGUGGCAAAGUGGCAGUGGCUAGACUGCCUCUCUGGAUUCCUCGUCACUCAGCAGGGCAUCUCUGAGAGAAAUGCC, 0.04.
Take UACAUAGGUGGUUUUCCCCUGAUAGUGCUAAGGGGGCCUGGAAGUUUGGACUGGGCAGAGCUCAACACAGCGUGGCAAAGUGGCUGUGGCUAGACAGCCUCUCUGGAUUCCUCGUCACUCAGCAGGGCAUCUCUGAGAGAAAUGCC: the self-cleavage was 0.08.
For the variant UACAUAGGUGGUUUUCCCCUGAUAGUGCUAAGGGGGCCUGGAAGUUUGGACUGGGCAGAGCUCAACACAGCGUGGCAAAGUGGCUGUGGCUAGACUGCCUCUCUGGAUUCCCCGUCACUCAGCAGGGCAUCUCUGAGAGAAAUGCC, the self-cleavage is 1.31.
As for UACAUAGGUGGUUUUCCCCUGAUAGUGCUAAGGGGGCCUGGAAGUUUGGACUGGGCAGAGCUCAACACAGCGUGGCAAAGUGGCUGUGGCUAGACUGCCUCCCUGGAUUCCUCGUCACUCAGCAGGGCAUCUCUGAGAGAAAUGCC, the figure is 0.82.
As for UACAUAGGUGGUUUUCCCCUGAUAGUGCUAAGGGGGCCUGGAAGUUUGGACUGGGCAGAGCUCAACACAGCGUGGCAAAGUGGCUGUGGCUAGACUGCCUCGCUGGAUUCCUCGUCACUCAGCAGGGCAUCUCUGAGAGAAAUGCC, the figure is 0.26.
On to UACAUAGGUGGUUUUCCCCUGAUAGUGCUAAGGGGGCCUGGAAGUUUGGACUGGGCAGAGCUCAACACAGCGUGGCAAAGUGGCUGUGGCUAGACUGCCCCUCUGGAUUCCUCGUCACUCAGCAGGGCAUCUCUGAGAGAAAUGCC, for which the self-cleavage came to 1.21.
UACAUAGGUGGUUUUCCCCUGAUAGUGCUAAGGGGGCCCGGAAGUUUGGACUGGGCAGAGCUCAACACAGCGUGGCAAAGUGGCUGUGGCUAGACUGCCUCUCUGGAUUCCUCGUCACUCAGCAGGGCAUCUCUGAGAGAAAUGCC: the self-cleavage stood at 1.31.
With UACCUAGGUGGUUUUCCCCUGAUAGUGCUAAGGGGGCCUGGAAGUUUGGACUGGGCAGAGCUCAGCACAGCGUGGCAAAGUGGCUGUGGCUAGACUGCCUCUCUGGAUUCCUCGUCACUCAGCAGGGCAUCUCUGAGAGAAAUGCC, the self-cleavage turned out to be 0.08.
As for UACCUAGGUGGUUUUCCCCUGAUAGUGCUAAGGGGGCCUGGAAGUUUGGACUGGGCAGAGCUCAACACAGCGUGGCAAAGUGGCUGUGGCUAGACUGCCUCUCUGGAUUCCUCGUCACUCAGCAGGGCAUCUCUGAGAGGAAUGCC, the figure is 1.19; as for UACAUAGGUGGUUUUCCCCUGAUAGUGCUAAGGGGGCCUGGAAGUAUGGACUGGGCAGAGCUCAACACAGCGUGGCAAAGUGGCUGUGGCUAGACUGCCUCUCUGGAUUCCUCGUCACUCAGCAGGGCAUCUCUGAGAGAAAUGCC, 1.17; as for UACCUAGGUGGUUUUCCCCUGGUAGUGCUAAGGGGGCCUGGAAGUUUGGACUGGGCAGAGCUCAACACAGCGUGGCAAAGUGGCUGUGGCUAGACUGCCUCUCUGGAUUCCUCGUCACUCAGCAGGGCAUCUCUGAGAGAAAUGCC, 0.99.
Consider UACAUAGGUGGUUUUCCCCUGAUAGUGCUAAGGGGGCCUGGAAGUUUGGACUGGGCAGAGCUCAACACAGCGUGGCAAAGUGGCUGAGGCUAGACUGCCUCUCUGGAUUCCUCGUCACUCAGCAGGGCAUCUCUGAGAGAAAUGCC, for which the self-cleavage amounted to 0.12.

The record behind these values is the RNAGym collection of RNA variant scans (doi:10.7554/elife.90254).
